Experiments:
[1] = tested on: PGE2 induced Ca++ influx in HEK293 Gα16 cells stably transfected with human EP4 receptor; assay: EP4 bioassay: PGE2 induced Ca++ flux (FLIPR); format: cell-based; settings: PGE2 25 pm; read-out: IC50 (pM) @ PGE2 25 pm Cellular Potency in EP4 assay
Description: The ability of anti-PGE2 antibody to inhibit cellular response of PGE2 in vitro was determined in a Ca^++ flux assay in HEK293 Gα16 cells (Abbott Bioresearch Center, Worcester, Mass.) stably transfected with human EP4 receptor. In brief, an expression plasmid encoding one of the four human PGE2 receptors, EP4, and an expression plasmid encoding Gα16, were co-transfected into human embryonic kidney cell line 293 cells (ATCC# CRL1573, Manassas, Va.). The stable clones co-expressing both human EP4 and Gα16 protein were selected using standard methods (Joseph Sambrook and David W. Russell. Molecular Cloning: A Laboratory Manual Publisher. Published by Cold Spring Harbor Laboratory Press, 2001) and used for the EP4 bioassay. The HEK293 Gα16 cells were plated in black/clear poly-D-lysine plates (Corning #3667, Corning, N.Y.) and incubated with a Ca^++-sensitive dye (Molecular Devices, Sunnyvale, Calif.) for 90 minutes. Stock PGE2 (in 200 proof ethanol) was diluted with FLIPR buffer [containing 1×HBSS (Invitrogen Carlsbad, Calif.), 20 mM HEPES (Invitrogen Carlsbad, Calif.), 0.1% BSA (Sigma, St. Louis, Mo.) and 2.5 mM Probenecid (Sigma, St. Louis, Mo.)]. Anti-PGE2 antibodies or isotype matched control antibodies were also pre-diluted in FLIPR buffer. 25 μl of PGE2 or pre-incubated PGE2/antibody mixture was added to the wells pre-plated with cells. The dose response of PGE2 was determined on a serial titration of PGE2 and using FLIPR1 or Tetra (Molecular Devices, Sunnyvale, Calif.) and EC50 was determined using GraphPad Prism 5 (GraphPad Software, La Jolla, Calif.). […] Ca^++ flux was monitored using FLIPR1 and data was analyzed using GraphPad Prism 5 (GraphPad Software, La Jolla, Calif.).

[2] = Accelerated stability screening monitored by SEC; format: physicochemical; settings: for Aggregate (%) / Fragment (%) / Monomer (%): SEC
Description: Size exclusion chromatography was used to separate proteins based on size. Proteins are carried in an aqueous mobile phase and through a porous stationary phase resin packed in a column. The retention time in the column is a function of the hydrodynamic size of the protein and the size of the pores in the packed resin bed. Smaller molecules can penetrate into smaller pores in the resin and are retained longer than larger molecules. Upon elution from the column the proteins are detected by UV absorbance. The SEC method used a TSK gel guard (TOSOH Biosciences, Montgomeryville, Pa., cat. no. 08543) and a TSK gel G3000SWxL (TOSOH Biosciences, Montgomeryville, Pa., cat. no. 08541). The mobile phase was 100 mM Na2HPO4, 200 mM Na2SO4, pH 7.0. The flow rate was 0.3 mL/minute. Injection volume was 20 μL of 1 mg/mL sample. The column temperature was room temperature. The autosampler temperature was 2-8° C. The total run time was 50 minutes. The detection was based on UV absorbance at 214 nm wavelength, with band width set at 8 nm, using reference wavelength at 360 nm with band width 100 nm.
(§1) The stability of a series of clones (i.e., anti-PGE2 antibodies) of the parent anti-PGE2 antibody was assessed by using intrinsic thermodynamic clone stability determination using DSC (0.79 mg/mL clone concentration, formulated at pH 6 in a 10 mM citrate, 10 mM phosphate buffer) and by accelerated stability screening (0.79 mg/mL clone concentration, formulated at pH 6 in a 10 mM citrate, 10 mM phosphate buffer, for 7 days at 50° C.) where clone stability was monitored with SEC (Table 15).

[3] = Intrinsic thermodynamic stability by DSC; format: physicochemical
Description: The thermal stability of the anti-PGE2 antibodies was assessed using a DSC instrument. The DSC instrument used was an automated VP-DSC equipment with Capillary Cell (Microcal, GE Healthcare Ltd./Microcal, Buckinghamshire, UK). Unfolding of molecules was studied applying a 1° C./minute scan rate over a 25° C.-95° C. temperature range for samples at 1 mg/mL. Additional measurement parameters applied were a fitting period of 16 seconds, a pre-scan wait time of 10 minutes, and measurements were performed in none-feedback mode. Per individual measurement, 420 μL of sample/blank were filled into the DSC measurement sample holder, with a plate fill scheme as provided below. The thermograms obtained were fitted to a non two state model to obtain the midpoint temperatures and enthalpies of the different transitions.
as §1

^3H-PGE2 ELISA (binding) = assay: ^3H-PGE2 ELISA (binding)
Description: Alternatively, prostaglandin binding was determined using a ^3H-PGE2 ELISA. Plates were coated at 50 μL/well with 5 μg/ml of goat anti-human IgG (Fc) (Thermo Scientific # 31170, Hudson, N.H.) or goat anti-mouse IgG (Fc) (Thermo Scientific # 31125, Hudson, N.H.) in PBS and incubated overnight at 4° C. The following day, plates were flicked and blotted dry. Plates were blocked with 200 μL/well of Superblock (Thermo Scientific # 37515, Hudson, N.H.) for 1 hour at room temperature. Plates were flicked and blotted dry. Monoclonal antibodies were diluted to 0.04 μg/ml in phosphate buffer solution with Tween 20 (PBST) (Abbott Bioresearch Center, Worcester, Mass.) and 10% Superblock and 50 μL of each antibody was added to each well of the pre-blocked ELISA plate at 2 ng/well and incubated for 1 hour at room temperature. Wells were washed 3 times with PBS+0.1% Tween-20. A serial 3-fold titration of ^3H-PGE2 (Perkin Elmer # NET-428, Waltham, Mass.) was prepared in PBST/10% Superblock. Fifty microliters of the ^3H-PGE2 solution was added to each well of the plate and incubated for 1 hour at room temperature. […] Plates were read using a TopCount reader (Perkin Elmer, Waltham, Mass.) with a 5 minute count delay. An EC50 number was determined using GraphPad Prism 5 (GraphPad Software, La Jolla, Calif.).

[4] = Capillary zone electrophoresis; format: physicochemical; settings: running buffer pH 5.5; compared with Hu2B5.2, Hu2B5.4, Hu2B5.6, Hu2B5.8
Source text: Capillary zone electrophoresis is a capillary electrophoresis method in which the capillary is filled with buffer and the separation mechanism is based on differences in electrophoretic mobility of the analyte through the buffer. The electrophoretic mobility of a molecule is related to the charge-to-size ratio. A Beckman-Coulter ProteomeLab PA 800 (Beckman Coulter, Fullerton, Calif.) was used for the CZE analysis. A neutral capillary (eCAP neutral, 56 cm total length, 50 μm I. D. Beckman-Coulter, P/N 477441, Fullerton, Calif.) was used. The method used a 30.2 cm capillary with a detection window 20.2 cm from the sample introduction inlet. The running buffer was 100 mM EACA (6-Aminocaproic acid, Sigma A7824-100 G, St. Louis, Mo.) with 0.1% MC (from 1% Methylcellulose solution, Convergent Bioscience, cat# 101876, Toronto, ON, Canada), pH 5.5.

B1: Hu2B5.9: humanized 2B5-8.0; VH SEQ ID NO 76, VL SEQ ID NO 77 (antibody, V domains shown)
VH: EVQLVQSGAEVKKPGASVKVSCKASGYTFTKYWLGWVRQAPGQGLEWMGDIYPGYDYTHYNEKFKDRVTMTTDTSTSTAYMELRSLRSDDTAVYYCARSDGSSTYWGQGTLVTVSS
VL: DIVMTQTPLSLPVTPGEPASISCTSSQNIVHSNGNTYLEWYLQKPGQSPQLLIYKVSNRFSGVPDRFSGSGSGTDFTLKISRVEAEDVGVYYCFQVSHVPYTFGGGTKVEIKR
With B1 the IC50 [1] was 125 pM, the “monomer levels after 7 days accelerated stability screening” value ([2]; 7 days at 50° C.) was “highest monomer levels” and the “Aggregate (%)” value ([2]; 7 days storage at 50° C.) was 1.9559%. For the same molecule, the “Fragment (%)” value ([2]; 7 days storage at 50° C.) was 3.4127%, the “Monomer (%)” value ([2]; 7 days storage at 50° C.) was 94.6313% and the “Fragment (%)” value ([2]; start of stability study) was 2.541%. The “Monomer (%)” value ([2]; start of stability study) was 95.6031%, the “Aggregate (%)” value ([2]; start of stability study, 0.79 mg/mL, pH 6) was 1.8559% and the “Tm1 (° C.)” value ([3]; 0.79 mg/mL, pH 6, 10 mM citrate, 10 mM phosphate) was 73.235 °C. For the same molecule, the “Tm2 (° C.)” value ([3]; same buffer) was 75.965 °C, the “Tm3 (° C.)” value ([3]; same buffer) was 83.04 °C and the IC50 (^3H-PGE2 ELISA (binding)) was 0.704 nM. The “migration in capillary zone electrophoresis” value [4] was “migrated more basic”.

— patent publication US8624002B2, “Prostaglandin E2 binding proteins and uses thereof” (AbbVie, Inc., priority 2008, dated 2014)
